Assay results published in the nanobody polyreactivity screen of Harvey et al. (2022).

Test: yeast display, Sf9 membrane polyspecificity reagent, FACS + sequencing; frameworks hold sequencing errors
Outline: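 Genes from sorted yeast were amplified by colony PCR, read by MiSeq 2 × 250 sequencing and filtered on CDR length. These cells carried a synthetic nanobody library in Saccharomyces cerevisiae BJ5465 and were sorted by FACS into low and high (top ~1%) gates on anti-HA and streptavidin fluorescence. Polyreactivity is labelled according to the gate of origin.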

| Sequence | polyreactivity (PSR sort gate) |
| --- | --- |
| QVQLVESGGGLVQAGGSLRLSCAASGSTFPKYGMGWYRQAPGKEREFVARINWNGGGTYYADSVKGRFTISRDYAKNTVYLQMNSLKPEDTAVYYCNARKRGARFILGYDYWGQGTQVTVSS | low polyreactivity |
| QVQLVESGGGLVQAGGSLRIICAASGSTFTWNDMRWYRQAPGKERELVAGISLSAGSTYYADSVKGRFTISRDNAKNTDYLQMKSLKPEHTAVYYCNADPGGPDTYEEHDYWGQGTQVTVSS | low polyreactivity |
| QVQLVESGGGLVQAGGSLRLSCAASGTTFGRYAMGWYRQAPGKERELVAAITRSGGRTYYADSVKERFTISRDNAKNTVYLQMNSLIPEDTAVYYCAAVGNLYYTSLWQYDYWGQGTQVTVSS | high polyreactivity |
| QVQLVESGGGLVQAGGSLRLSCAASGSILQPNAMGWYRQAPGKERELVASITFSAGRTYYADSVKVRFTISRDNAKNTVYLQMNCLKPEDTAVYYCKAASDYRSSDYDYWGQGTQVTVSS | low polyreactivity |
| QVQLVESGGRLVQEGGSLRLSCAASGSTFKQYAMGWYRQAPGKEWELVAAISRSGSRTYYADSVKGRFTISRDNAKYTVYLQMNSLKPEDTAVYYCAAERRSTAGWLYDYWGQGTQVTVSS | high polyreactivity |
| QVQLVESGGGLVQAGGSLRLSCAASGFTIYPYAMGWYRQAPGKERELVAAISQRGGRTSYADSVKGRFTISRDNAKNTVYLQMNSLKPEDTAVYYCAARFWATEGYWGQGTQVTVSS | high polyreactivity |
| QVQLVESGGGLVQAGGSLRLSCAASGSTFYQYAMGWYRQAPGKERELVAAISRISGSTSYADSVKGRFTISRDNAKNTVYLQLYSLKPEDTAVYYCAKGTAPIPYRGRVGTSKSDYWGQGTQVTVSS | low polyreactivity |
| QVQLLESGRGLVQAGGSLRLSCAPSGLTFRYMAMGWYIQAPGKERELVAAINSGGRTNYADSVKGRFTISRDNAKNTVFLQMNSLKPEDTAVYYCAAVRHWTVGWTYYYWGQGTQVTVSS | high polyreactivity |
| QVQLVESGGGLVQAGGSLRLSCAASGIIFWYYAMVWYRHAPGKERELVASISGTGGTTYYADSVKGRFTISRDNAKNTVYLQMNSLKPEDTAVYDCSALSGQHDYDYWGQGTQVTVSS | low polyreactivity |
| QVQLVESGGGLVLAGGSLRLSCAASGRTFRYYTMGWFRPAPGKEREFVAAISSTGGTYYADSVKGRFTISRDNAKNTVYLQMNSLNPEDTAVYYCAATFIQVVVNVQLYDYDYWGQGTQVTVSS | low polyreactivity |
| QVQLVESGGGLVQAGGSLRLSCAASGITFYAYAMGWYRQAPGKERELVAAITSSGSSTYYADSVKGRFTISRDNAKNTVYLQMISLKPEDSAVYYCAARRYRSVRNDYWGQGTQVTVSS | high polyreactivity |
| QVQLVESGGGLVQAGGSLRLSCAASGTFYLYAIGWYRQAPGNERELVAALTRGGSTNYADSVKGRFTISRDNAKNTVDLQMNSLKPEDTAVYYCAAGSSRVFRKAGITRPSGLYYYWGQGTQVTVSS | high polyreactivity |
| QVQLVESGGGLVQAGGSLRLSCADSGRIFADNAMGWYRHAPGKERELVAAITWSGGITFYADSVKGRFTISRDNAKKTVYLQMNSLKPEDTAVYYCATYGHRDTPYNYWGQGTQVTVSS | low polyreactivity |
| QDQLVESGGRIVQAGGSLRLSCASSGRTFYTYAMGWYRKAPGKERELVAAISSSGSTYYADSVKGRFTISRDNAKNTVYLQMNSLKPEDTALYDCNARTSRYRRGGDSWGQGTQVTVSS | high polyreactivity |
| QLQLVESGGGLVQAGGSLRLSCAASGSIFYKYAMGWYRQAPGKERELVAAITWSGGRTYYADSVKGRFTISRDNAKNTVYLQMNSLIPEDTAVYYCAAVLRRYPGWVSDYNYWGQGTQVTVSS | high polyreactivity |
| QVQLQESGGGLVQASGSLRLSCAASGNIFPDYFMGWYRLAPGKEREFVANITGGSTTNYADSVKGRFTISRDNAKNTLYLQMNSLKPEDTAVYYCAVNFGTVVLYLYWGQGTQVTVSI | high polyreactivity |

| Sequence | polyreactivity (PSR sort gate) |
| --- | --- |
| QVQLVESGGGLVQAGGSLRLSCAASGRTFQKNTMGWYRQPPGKERELVAAIDYSATTTYYADSVKGRFTSSRDTAKNTVYLQMNSLKPEDTAVYYCAARWSYPRWEFDYWGQGTQVTVTS | high polyreactivity |
| QVQLVESGGGLVQAGGSLRLSCAASGYTFNDYAMGWYRQARGKERELVASISSGGSTYYADSVKGRFTISRDNAKNTVYLQMNSLKPEDTAVYYCAAEWHYIYAYDYWGQGTQVTVSS | low polyreactivity |
| QVQLVESGGGLDQAGGSLRLSCAASGRIFRCYAMGWYREAPGKERELVAAISWSSGNTYYADSVKGRFTISRDNAKNTVYLQMNSLKAEDTAVYYCAADFKPTSRSNKYYYWGQGTQVTVSS | high polyreactivity |
| QVQLVESGGGLVQAGGSLRLSCAASGSIFPGNAMGWYRQAPGKERELVAAISSSGGRTYYADSVKGRFTISRDNAKNTVYLQMNSLKPEDTAVYYCNRLQVYSYYPYYPWYNYWGQGTQVTVSS | high polyreactivity |
| QVQLQESGGGLVQAGGSLRLSCAASGTISDSGLMGWYRQAPGKERELVAGISSGGITNYADSVKGRFTISRDNAKNKVYLQMNSLKPEDTAVYWGQGTQVTVSS | low polyreactivity |
| QVQLVESGGGLVQAGGSLRLSCAASGRTDYRYAMGWYRQAPGKERELVAAISRSGGRTYYADSVKGRFTISRDNAKNTVYLQMNSQKPEDTAVYYCASRGLGSGPVVEGDYWGQGTQVTVSS | high polyreactivity |
| QVQLVESGGGLVQAGGSLRLSCAASGRIFPYYAMGWSRQAPGKERELVAAISLSGGSTYYADSVKGRFTISRDNAKNTVYLQMNSLKPEDTAVYYCNAVASTYGYYWYPGLGYDYWGQGTQVTVSS | low polyreactivity |
| QVQLVESGGGLVQAGGSLRLSCAASGRTFPPYAMGWYRQAPRKESELVAAISGSGASTYYADSVKGRFTISRDNAKNTVYLQMNSLKPEDTAVYYCAARRGSGKFGKYRGVDYWGQGTQVTVSS | high polyreactivity |
| QVQLVESGGGLVQAGGSLRLSCAASGRTFPRYVMGWYRQAPGKERDLVAAIRRSGGSTYYADSVKGRFTISRDNAKNTVYLQMNSLKPDDTAVYYCNRVVYTYISTGSRHGRYYYWGQGTQVTVSS | high polyreactivity |
| QVQLVESGGGLVQAGGSLRLSWAASGSKSCADVMGWYRPEPGKERELLAAISSGTSTYYADSVKGRFTISRDNAKNTVYLQMNSLKPEDTGVYYCAAYYYSYPTNGGYGYCGQGTQVTVSS | low polyreactivity |
| QVQLVDSGGGLVQAGGSLRLSCAASGRTISGYAMGWYRQAPGKERELVAAITSRGGRTYYADSVKGRFTISRDNAKNTVYLQMNSLKPEDTAVYYCAAYRRLTLYDYWGQGTQVTVSS | high polyreactivity |
| QVQLVESGGGLVQAGGSLRLSCAASGRTSPAYAMGWYRQAPGKERELVAAISRSGGRTNYADSVKGRFTISRDNAKNTVYLQMNSLKPEDTAVYYCAVPYWYLGDNSGHDPYYYWGQGTQVTVSS | high polyreactivity |
| QVQLEESGGGLVQAGGSLSLSCAASGSILIYNAMGWYRQAPGKERELVAGISRRGASTYYADSVKGRFTISRDNEKKTVYLQMNRLKPEDTAVYYCAALGKYIVAWSGDYWGQGTQVTVSS | low polyreactivity |
| QVQLVESGGGLVQAGGSLRLSCAASGSIFFYYVMGWYRQAPGKERELVAVISSGGGSTYYADSVKGRFTISRDNAKNTVYLQMNSLKPEDTAVYYCAAGTYYKFYYWGQGTQVTVSS | high polyreactivity |
| QVQLVESGGGLDQAGGSLRLSCAASGSTFTSYDMGWYIQAPGKERELVAAITISSGGTYYADSVKGRFTISRDTAKNTVYLQMNSLKPEDTEVYYCAADIFADASYDYWGLGTQVTVSS | low polyreactivity |
